Assay results reported in IntAct's records for PubMed 10779557.

B1: Lymphokine-activated killer T-cell-originated protein kinase (Homo sapiens), Q96KB5 (parent)
chain: MEGISNFKTPSKLSEKKKSVLCSTPTINIPASPFMQKLGFGTGVNVYLMKRSPRGLSHSPWAVKKINPICNDHYRSVYQKRLMDEAKILKSLHHPNIVGYRAFTEANDGSLCLAMEYGGEKSLNDLIEERYKASQDPFPAAIILKVALNMARGLKYLHQEKKLLHGDIKSSNVVIKGDFETIKICDVGVSLPLDENMTVTDPEACYIGTEPWKPKEAVEENGVITDKADIFAFGLTLWEMMTLSIPHINLSNDDDDEDKTFDESDFDDEAYYAALGTRPPINMEELDESYQKVIELFSVCTNEDPKDRPSAAHIVEALETDV

Variants of: B1
Details: with dlg1_human DLG1, Q12959
Sequence of dlg1_human DLG1, Q12959 (Q12959 whole entry, looked up): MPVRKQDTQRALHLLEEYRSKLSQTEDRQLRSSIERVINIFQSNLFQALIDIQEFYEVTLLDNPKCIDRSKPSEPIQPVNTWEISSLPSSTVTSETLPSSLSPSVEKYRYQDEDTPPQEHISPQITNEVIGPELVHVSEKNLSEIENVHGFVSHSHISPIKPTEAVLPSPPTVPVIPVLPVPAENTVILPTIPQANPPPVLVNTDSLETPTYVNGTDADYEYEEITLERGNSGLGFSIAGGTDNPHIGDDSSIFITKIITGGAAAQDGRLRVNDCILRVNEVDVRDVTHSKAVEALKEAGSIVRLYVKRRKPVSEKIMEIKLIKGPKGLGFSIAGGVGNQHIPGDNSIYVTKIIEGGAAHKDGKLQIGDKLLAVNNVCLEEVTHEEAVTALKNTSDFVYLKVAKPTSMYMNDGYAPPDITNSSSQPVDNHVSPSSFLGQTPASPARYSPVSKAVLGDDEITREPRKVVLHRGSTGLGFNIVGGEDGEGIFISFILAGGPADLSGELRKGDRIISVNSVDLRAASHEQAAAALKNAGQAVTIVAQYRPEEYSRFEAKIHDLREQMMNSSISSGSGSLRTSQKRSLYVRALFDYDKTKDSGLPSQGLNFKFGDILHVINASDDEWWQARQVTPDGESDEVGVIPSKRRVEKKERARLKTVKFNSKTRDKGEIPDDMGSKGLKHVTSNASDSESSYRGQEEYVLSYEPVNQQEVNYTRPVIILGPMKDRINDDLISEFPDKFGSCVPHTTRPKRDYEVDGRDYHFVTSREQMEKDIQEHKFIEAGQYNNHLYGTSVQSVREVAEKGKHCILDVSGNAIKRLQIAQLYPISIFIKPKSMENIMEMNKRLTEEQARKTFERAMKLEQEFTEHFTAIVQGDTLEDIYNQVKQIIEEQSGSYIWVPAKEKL

| effect of a mutation on the interaction | Variant |
| --- | --- |
| disrupting interaction | MEGISNFKTPSKLSEKKKSVLCSTPTINIPASPFMQKLGFGTGVNVYLMKRSPRGLSHSPWAVKKINPICNDHYRSVYQKRLMDEAKILKSLHHPNIVGYRAFTEANDGSLCLAMEYGGEKSLNDLIEERYKASQDPFPAAIILKVALNMARGLKYLHQEKKLLHGDIKSSNVVIKGDFETIKICDVGVSLPLDENMTVTDPEACYIGTEPWKPKEAVEENGVITDKADIFAFGLTLWEMMTLSIPHINLSNDDDDEDKTFDESDFDDEAYYAALGTRPPINMEELDESYQKVIELFSVCTNEDPKDRPSAAHIVEALETDA [V322A] |
| decreasing interaction | MEGISNFKTPSKLSEKKKSVLCSTPTINIPASPFMQKLGFGTGVNVYLMKRSPRGLSHSPWAVKKINPICNDHYRSVYQKRLMDEAKILKSLHHPNIVGYRAFTEANDGSLCLAMEYGGEKSLNDLIEERYKASQDPFPAAIILKVALNMARGLKYLHQEKKLLHGDIKSSNVVIKGDFETIKICDVGVSLPLDENMTVTDPEACYIGTEPWKPKEAVEENGVITDKADIFAFGLTLWEMMTLSIPHINLSNDDDDEDKTFDESDFDDEAYYAALGTRPPINMEELDESYQKVIELFSVCTNEDPKDRPSAAHIVEALEADV [T320A] |
